Reference: paper PMC10775985, “Malaria parasite centrins can assemble by Ca^2+-inducible condensation” (PLOS Pathogens, 2023)

Assays:
[1] = target: PfCen1-6His (P. falciparum centrin 1, 6His-tagged) (P. falciparum); assay: turbidity (light scattering); range of PfCen1-6His concentrations to find the saturation concentration; CaCl2 to 2 mM; 50 mM BisTris pH 7.1, 37°C, no salt or PEG
[2] = target: PfCen1-6His (P. falciparum centrin 1, 6His-tagged) (P. falciparum); assay: turbidity (light scattering); PfCen1-6His and PfCen3-6His at individually subcritical concentrations, alone with BSA to a total protein concentration of >20 μM or as a mixture; calcium, then EDTA; 50 mM BisTris pH 7.1, 37°C
[3] = target: PfCen3-6His (P. falciparum centrin 3, 6His-tagged) (P. falciparum); assay: as above
[4] = target: the molecule itself; assay: light microscopy of droplets in purified protein solutions; self-assembly into droplets; concentrated recombinant centrin (100-200 μM), 2 mM CaCl2 added, then 10 mM EDTA; 50 mM BisTris pH 7.1, 37°C

Q: “PfCen1-6His (P. falciparum centrin 1, 6His-tagged) (natural protein)” was tested. Which csat (critical saturation concentration) [1] did it give?
A: Its csat (critical saturation concentration) is 10 to 15 µM.

Q: What about the csat (saturation concentration) [2] of the same molecule?
A: The csat (saturation concentration) was 10 µM.

Q: Which csat (saturation concentration) [3] does the source give for “PfCen3-6His (P. falciparum centrin 3, 6His-tagged) (natural protein)” here?
A: Its csat (saturation concentration) is 10 µM.

B1: ScCdc31-6His (Saccharomyces cerevisiae centrin Cdc31) (natural protein, UniProt P06704 1-161, looked up)
chain: MSKNRSSLQSGPLNSELLEEQKQEIYEAFSLFDMNNDGFLDYHELKVAMKALGFELPKREILDLIDEYDSEGRHLMKYDDFYIVMGEKILKRDPLDEIKRAFQLFDDDHTGKISIKNLRRVAKELGETLTDEELRAMIEEFDLDGDGEINENEFIAICTDS
notes: Saccharomyces cerevisiae centrin Cdc31, 161 aa, 19 kDa; source: recombinant, pET-28 construct from a synthetic codon optimized gene
Q: Does B1 bind [4]?
A: Result: binds

B2: HsCen2-6His (human centrin 2, 6His-tagged) (natural protein, UniProt P41208 1-172, looked up)
chain: MASNFKKANMASSSQRKRMSPKPELTEEQKQEIREAFDLFDADGTGTIDVKELKVAMRALGFEPKKEEIKKMISEIDKEGTGKMNFGDFLTVMTQKMSEKDTKEEILKAFKLFDDDETGKISFKNLKRVAKELGENLTDEELQEMIDEADRDGDGEVSEQEFLRIMKKTSLY
notes: human centrin 2 (HsCen2); mass spectrometry confirmed full length except for cleavage of methionine 1; source: E. coli BL21-CodonPlus (DE3), pET-28, purified (Ni-NTA); not shown: 6His, C-terminal, kept
Q: Does B2 bind [4]?
A: Result: binds
